# Assay results from patent US5773647A, “Compounds and compositions for delivering active agents” (Emisphere Technologies, Inc., priority 1997, dated 1998).
# Read-outs that look alike come from different tables or passages of the source.
# Tests used:
# [1] = rat, in vivo, 50 mg/kg
# Experimental: (§1) An intracolonic dosing composition containing 50 mg/kg of carrier 9 and 250 μg/kg of interferon in 50% propylene glycol was prepared. Rats were administered the dosing composition by intracolonic instillation.
# (§2) Rats were administered, orally and by intracolonic instillation, dosing solutions of 1 mg/kg of interferon and no carrier.
# [2] = In vivo interferon delivery (ELISA for human interferon); settings: 1 mg/kg interferon, no carrier
# Experimental: as §1, §2
Compound,Mean peak serum interferon concentration [1],Mean peak serum interferon concentration ([2]; intracolonic (IC)),Mean peak serum interferon concentration ([2]; oral (PO))
O=C(O)CCCc1ccc(NC(=O)COc2ccccc2)cc1 [Compound 9],2611±695,–,–
interferon,–,79±100,1951±1857
